Results reported in patent US20020160010A1.

Target: CD44 variant carrying the epitope coded by exon v6 on human Langerhans cells and dendritic cells (human) (UniProt P16070)

- binding of cultivated LCs and cytokine-activated DCs to paracortical T-cell zones of lymph node frozen sections: < 66 % inhibition
Substance: VFF18 (antibody)
